Blank lines part the entries; values can stand above or below the binder they belong to.
How the values were obtained:
4H2622-AA = molecular target: T1, 4H2622-AA; experiment: two-hybrid library CCmax; conditions: mean of both orientations;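 also: natural log of median RNA to DNA barcode read ratio; higher means stronger binding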
T1 chain: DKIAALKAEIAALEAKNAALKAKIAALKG

4H2888-AA = molecular target: T2, 4H2888-AA; experiment: two-hybrid library CCmax; conditions: mean of both orientations;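 also: natural log of median RNA to DNA barcode read ratio; higher means stronger binding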
T2 chain: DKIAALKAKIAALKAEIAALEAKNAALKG

4H1392-AA = molecular target: T3, 4H1392-AA; experiment: two-hybrid library CCmax; conditions: mean of both orientations;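 also: natural log of median RNA to DNA barcode read ratio; higher means stronger binding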
T3 chain: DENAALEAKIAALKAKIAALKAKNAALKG

4H3625-AA = molecular target: T4, 4H3625-AA; experiment: two-hybrid library CCmax; conditions: mean of both orientations;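 also: natural log of median RNA to DNA barcode read ratio; higher means stronger binding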
T4 chain: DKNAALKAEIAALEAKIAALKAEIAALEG

4H2736-AA = molecular target: T5, 4H2736-AA; experiment: two-hybrid library CCmax; conditions: mean of both orientations;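 also: natural log of median RNA to DNA barcode read ratio; higher means stronger binding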
T5 chain: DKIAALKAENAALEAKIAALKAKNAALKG

4H451-AA = molecular target: T6, 4H451-AA; experiment: two-hybrid library CCmax; conditions: mean of both orientations;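 also: natural log of median RNA to DNA barcode read ratio; higher means stronger binding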
T6 chain: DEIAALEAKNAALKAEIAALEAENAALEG

4H337-AA = molecular target: T7, 4H337-AA; experiment: two-hybrid library CCmax; conditions: mean of both orientations
T7 chain: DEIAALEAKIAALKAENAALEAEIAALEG

4H1193-AA = molecular target: T8, 4H1193-AA; experiment: two-hybrid library CCmax
T8 chain: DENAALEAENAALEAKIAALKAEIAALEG

4H1350-AA = molecular target: T9, 4H1350-AA; experiment: two-hybrid library CCmax; conditions: mean of both orientations
T9 chain: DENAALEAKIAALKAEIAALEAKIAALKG

4H2705-AA = molecular target: T10, 4H2705-AA; experiment: two-hybrid library CCmax; conditions: mean of both orientations
T10 chain: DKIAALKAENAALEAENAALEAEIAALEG

4H_BCR = molecular target: T11, 4H_BCR; experiment: two-hybrid library CCmax; conditions: mean of both orientations
T11 chain: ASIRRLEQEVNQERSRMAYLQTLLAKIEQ

4H134-AA = molecular target: T12, 4H134-AA; experiment: two-hybrid library CCmax; conditions: mean of both orientations
T12 chain: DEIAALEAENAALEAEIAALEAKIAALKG

4H_APH = molecular target: T13, 4H_APH; experiment: two-hybrid library CCmax; conditions: mean of both orientations
T13 chain: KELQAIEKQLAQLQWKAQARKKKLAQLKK

O14-AA = molecular target: T14, O14-AA; experiment: two-hybrid library CCmax; conditions: mean of both orientations
T14 chain: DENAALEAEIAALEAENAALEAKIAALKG

O13-AA = molecular target: T15, O13-AA; experiment: two-hybrid library CCmax; conditions: mean of both orientations
T15 chain: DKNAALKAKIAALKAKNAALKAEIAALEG

4H3049-AA = molecular target: T16, 4H3049-AA; experiment: two-hybrid library CCmax; conditions: mean of both orientations
T16 chain: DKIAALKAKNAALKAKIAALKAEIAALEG

4H3905-AA = molecular target: T17, 4H3905-AA; experiment: two-hybrid library CCmax; conditions: mean of both orientations
T17 chain: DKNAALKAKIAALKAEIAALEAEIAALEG

O11-AA = molecular target: T18, O11-AA; experiment: two-hybrid library CCmax; conditions: mean of both orientations
T18 chain: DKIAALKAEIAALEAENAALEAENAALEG

4H510-AA = molecular target: T19, 4H510-AA; experiment: two-hybrid library CCmax; conditions: mean of both orientations
T19 chain: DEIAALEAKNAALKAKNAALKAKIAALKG

4H1385-AA = molecular target: T20, 4H1385-AA; experiment: two-hybrid library CCmax; conditions: mean of both orientations
T20 chain: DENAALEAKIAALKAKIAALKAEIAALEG

4H384-AA = molecular target: T21, 4H384-AA; experiment: two-hybrid library CCmax; conditions: mean of both orientations
T21 chain: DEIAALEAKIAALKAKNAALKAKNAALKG

4H43-AA = molecular target: T22, 4H43-AA; experiment: two-hybrid library CCmax; conditions: mean of both orientations
T22 chain: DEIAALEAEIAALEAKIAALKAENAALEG

4H4038-AA = molecular target: T23, 4H4038-AA; experiment: two-hybrid library CCmax; conditions: mean of both orientations
T23 chain: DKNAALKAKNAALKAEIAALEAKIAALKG

4H3587-AA = molecular target: T24, 4H3587-AA; experiment: two-hybrid library CCmax; conditions: mean of both orientations
T24 chain: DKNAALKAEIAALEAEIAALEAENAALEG

4H3590-AA = molecular target: T25, 4H3590-AA; experiment: two-hybrid library CCmax; conditions: mean of both orientations
T25 chain: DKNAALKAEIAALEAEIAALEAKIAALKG

GCN2_T = experiment: two-hybrid library CCmax; conditions: mean of both orientations
4H_GCN4 = experiment: two-hybrid library CCmax
4H_GCN4, sequence (chain, as listed by the source): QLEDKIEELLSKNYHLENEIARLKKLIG

4H745-AA = molecular target: T26, 4H745-AA; experiment: two-hybrid library CCmax; conditions: mean of both orientations
T26 chain: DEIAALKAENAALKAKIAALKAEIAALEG

4H458-AA = molecular target: T27, 4H458-AA; experiment: two-hybrid library CCmax; conditions: mean of both orientations
T27 chain: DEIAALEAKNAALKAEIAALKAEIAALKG

4H629-AA = molecular target: T28, 4H629-AA; experiment: two-hybrid library CCmax; conditions: mean of both orientations
T28 chain: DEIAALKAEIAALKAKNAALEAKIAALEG

4H797-AA = molecular target: T29, 4H797-AA; experiment: two-hybrid library CCmax; conditions: mean of both orientations
T29 chain: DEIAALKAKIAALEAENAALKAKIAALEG

4H909-AA = molecular target: T30, 4H909-AA; experiment: two-hybrid library CCmax; conditions: mean of both orientations
T30 chain: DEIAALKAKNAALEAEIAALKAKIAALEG

P5-AA-1HAA-R = molecular target: T31, P5-AA-1HAA-R; experiment: two-hybrid library CCmax
T31 chain: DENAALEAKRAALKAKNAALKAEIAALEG

4H982-AA = molecular target: T32, 4H982-AA; experiment: two-hybrid library CCmax; conditions: mean of both orientations
T32 chain: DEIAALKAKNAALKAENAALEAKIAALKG

4H536-AA = molecular target: T33, 4H536-AA; experiment: two-hybrid library CCmax; conditions: mean of both orientations
T33 chain: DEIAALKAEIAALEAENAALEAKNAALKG

4H697-AA = molecular target: T34, 4H697-AA; experiment: two-hybrid library CCmax
T34 chain: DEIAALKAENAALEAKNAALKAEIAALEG

4H710-AA = molecular target: T35, 4H710-AA; experiment: two-hybrid library CCmax; conditions: mean of both orientations
T35 chain: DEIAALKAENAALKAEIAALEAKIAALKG

4H3865-AA = molecular target: T36, 4H3865-AA; experiment: two-hybrid library CCmax
T36 chain: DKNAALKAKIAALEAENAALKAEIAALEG

4H94-AA = molecular target: T37, 4H94-AA; experiment: two-hybrid library CCmax; conditions: mean of both orientations
T37 chain: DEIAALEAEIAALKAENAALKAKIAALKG

4H891-AA = molecular target: T38, 4H891-AA; experiment: two-hybrid library CCmax; conditions: mean of both orientations
T38 chain: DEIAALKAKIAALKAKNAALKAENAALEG

4H930-AA = molecular target: T39, 4H930-AA; experiment: two-hybrid library CCmax; conditions: mean of both orientations
T39 chain: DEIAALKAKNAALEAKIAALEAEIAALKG

4H570-AA = molecular target: T40, 4H570-AA; experiment: two-hybrid library CCmax; conditions: mean of both orientations
T40 chain: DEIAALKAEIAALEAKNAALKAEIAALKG

4H850-AA = molecular target: T41, 4H850-AA; experiment: two-hybrid library CCmax; conditions: mean of both orientations
T41 chain: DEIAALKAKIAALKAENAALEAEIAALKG

4H485-AA = molecular target: T42, 4H485-AA; experiment: two-hybrid library CCmax; conditions: mean of both orientations
T42 chain: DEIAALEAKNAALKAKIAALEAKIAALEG

4H1373-bH = molecular target: T43, 4H1373-bH; experiment: two-hybrid library CCNG1
T43 chain: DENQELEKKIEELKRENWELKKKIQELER

4H850-bH = molecular target: T44, 4H850-bH; experiment: two-hybrid library CCNG1
T44 chain: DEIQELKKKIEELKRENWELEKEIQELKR

4H570-bH = molecular target: T45, 4H570-bH; experiment: two-hybrid library CCNG1
T45 chain: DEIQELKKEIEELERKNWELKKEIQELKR

4H3974-bH = molecular target: T46, 4H3974-bH; experiment: two-hybrid library CCNG1
T46 chain: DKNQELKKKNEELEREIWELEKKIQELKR

4H1449-bH = molecular target: T47, 4H1449-bH; experiment: two-hybrid library CCNG1
T47 chain: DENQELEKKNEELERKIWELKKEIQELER

4H1985-bH = molecular target: T48, 4H1985-bH; experiment: two-hybrid library CCNG1
T48 chain: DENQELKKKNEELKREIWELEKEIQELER

4H1899-bH = molecular target: T49, 4H1899-bH; experiment: two-hybrid library CCNG1
T49 chain: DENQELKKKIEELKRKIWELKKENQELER

4H1338-bH = molecular target: T50, 4H1338-bH; experiment: two-hybrid library CCNG1
T50 chain: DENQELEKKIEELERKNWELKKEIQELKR

4H3628-bH = molecular target: T51, 4H3628-bH; experiment: two-hybrid library CCNG1
T51 chain: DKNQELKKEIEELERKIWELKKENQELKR

4H3817-bH = molecular target: T52, 4H3817-bH; experiment: two-hybrid library CCNG1
T52 chain: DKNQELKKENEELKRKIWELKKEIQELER

4H1710-bH = molecular target: T53, 4H1710-bH; experiment: two-hybrid library CCNG1
T53 chain: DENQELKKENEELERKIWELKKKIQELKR

4H3858-bH = molecular target: T54, 4H3858-bH; experiment: two-hybrid library CCNG1
T54 chain: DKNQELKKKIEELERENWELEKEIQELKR

4H1348-bH = molecular target: T55, 4H1348-bH; experiment: two-hybrid library CCNG1
T55 chain: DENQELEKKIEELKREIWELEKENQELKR

4H1544-bH = molecular target: T56, 4H1544-bH; experiment: two-hybrid library CCNG1
T56 chain: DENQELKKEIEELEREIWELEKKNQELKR

4H3613-bH = molecular target: T57, 4H3613-bH; experiment: two-hybrid library CCNG1
T57 chain: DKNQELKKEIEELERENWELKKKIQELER

interaction score (4H2622-AA): 1.87 | interaction score (4H2888-AA): 0.331 | interaction score (4H1392-AA): -0.855 | interaction score (4H3625-AA): 0.75 | interaction score (4H2736-AA): -0.353 | interaction score (4H451-AA): -1.06 | interaction score (4H337-AA): -1.69 | interaction score (4H1193-AA): -1.08 | interaction score (4H1350-AA): 1.11 | interaction score (4H2705-AA): -1.54 | interaction score (4H_BCR): -1.78 | interaction score (4H134-AA): 1.42 | interaction score (4H_APH): -1.85 | interaction score (O14-AA): -1.3 | interaction score (O13-AA): -0.387 | interaction score (4H3049-AA): 1.47 | interaction score (4H3905-AA): -0.00198 | interaction score (O11-AA): -1.11 | interaction score (4H510-AA): -0.152 | interaction score (4H1385-AA): -0.776 | interaction score (4H384-AA): -1.19 | interaction score (4H43-AA): -0.557 | interaction score (4H4038-AA): 2.18 | interaction score (4H3587-AA): 0.0373 | interaction score (4H3590-AA): 1.11 | interaction score (GCN2_T): -1.62 | interaction score (4H_GCN4): -1.64
Binder: DENAALEAENAALEAKIAALKAEIAALEG [4H1193-AA]

interaction score (4H745-AA): -0.83 | interaction score (4H458-AA): -1.15 | interaction score (4H629-AA): -1.62 | interaction score (4H797-AA): 1.12 | interaction score (4H909-AA): -1.04 | interaction score (P5-AA-1HAA-R): -0.395 | interaction score (4H982-AA): -0.79 | interaction score (4H536-AA): -0.909 | interaction score (4H697-AA): -1.81 | interaction score (4H710-AA): -1.84 | interaction score (4H3865-AA): 0.444 | interaction score (4H94-AA): 1.56 | interaction score (4H891-AA): -1.81 | interaction score (4H930-AA): -1.43 | interaction score (4H570-AA): 0.484 | interaction score (4H850-AA): 1.18 | interaction score (4H485-AA): -1.27
Binder: DKNAALKAKIAALEAENAALKAEIAALEG [4H3865-AA]

interaction score (4H1373-bH): 0.156 | interaction score (4H850-bH): 1.44 | interaction score (4H570-bH): -0.436 | interaction score (4H3974-bH): 0.694 | interaction score (4H1449-bH): -0.182 | interaction score (4H1985-bH): 0.0593 | interaction score (4H1899-bH): -0.277 | interaction score (4H1338-bH): 0.937 | interaction score (4H3628-bH): 0.15 | interaction score (4H3817-bH): -0.423 | interaction score (4H1710-bH): -0.178 | interaction score (4H3858-bH): 1.35 | interaction score (4H1348-bH): 1.22 | interaction score (4H1544-bH): 0.712 | interaction score (4H3613-bH): -0.0861
Binder: DENQELEKKIEELERKNWELKKEIQELKR [4H1338-bH]

Reference: publication PMC10397247
